Substrate: O=[N+]([O-])c1ccc(O[C@@H]2O[C@@H](CO)[C@H](O)[C@H]2O)cc1
Assay: purified protein
Assay type: biochemical, Alicyclobacillus sp. A4
Conditions: pH 6.0, McIlvaine buffer, 60 °C, 5 min, substrate 1-10 mM

B1: Ac-Abf51A (Alicyclobacillus sp. A4) (protein)
chain: MSKSIARMTIDPQYQLADVDPRLFGSFIEHLGRAVYGGIYEPDHPSADEMGFRQDVLELVRELQVPIVRYPGGNFVSGYRWEDGVGPLASRPAQLDLAWRSLEPNRVGVNEFVEWAKRANSEVMMAVNLGTRGIDEAKQIVEYCNHPGGSYWSDLRKSHGYEQPHGIKVWCLGNEMDGPWQIGHKTAEEYGRIAEEAAKVMKWVDPSIELVACGSSGSKMPTFPDWERIVLEHTYDHVEYISMHSYYGNRENDLATYLAQSLDMDHFIRSVIATCDYVKAKKRSKKTINISFDEWNVWFHSNEADKQVAPWQVGPPLLEDVYTFEDALVVGCLLITLLRHADRVKMACLAQLVNVIAPIMTENGGVSWKQTIYYPFLHASRYGRGKVMHCSLQSPKYDCKEFTDVPLVESVAVWNQDIAELTIFAVNRSQDGGIELECDIRGFAQASVIEHTVLVHSDLKAANTKEEPQEVIPQHAQGAKVDGGLLFAPLPKLSWNVIRLRV
notes: no signal peptide; pET-30a(+) NdeI/NotI, C-terminal His tag inferred from cloning; E. coli BL21(DE3); Ni-NTA
Km: 460 µM | kcat: 23.0 s⁻¹

From publication PMC4666033, “A novel bifunctional GH51 exo-α-L-arabinofuranosidase/endo-xylanase from Alicyclobacillus sp. A4 with significant biomass-degrading capacity” (Biotechnology for Biofuels, 2015)
